# Measurements: patent US20180340025A1 (Novartis, published 2018)
# T1: human LAG-3 expressed on cells (human, UniProt P18627 23-525)
# T1 construct: whole, on cells; Treated as one protein; the host cell is named under assay; also called LAG-3-expressing CHO cells; LAG-3-transfected CHO cells
# T1 sequence (looked up): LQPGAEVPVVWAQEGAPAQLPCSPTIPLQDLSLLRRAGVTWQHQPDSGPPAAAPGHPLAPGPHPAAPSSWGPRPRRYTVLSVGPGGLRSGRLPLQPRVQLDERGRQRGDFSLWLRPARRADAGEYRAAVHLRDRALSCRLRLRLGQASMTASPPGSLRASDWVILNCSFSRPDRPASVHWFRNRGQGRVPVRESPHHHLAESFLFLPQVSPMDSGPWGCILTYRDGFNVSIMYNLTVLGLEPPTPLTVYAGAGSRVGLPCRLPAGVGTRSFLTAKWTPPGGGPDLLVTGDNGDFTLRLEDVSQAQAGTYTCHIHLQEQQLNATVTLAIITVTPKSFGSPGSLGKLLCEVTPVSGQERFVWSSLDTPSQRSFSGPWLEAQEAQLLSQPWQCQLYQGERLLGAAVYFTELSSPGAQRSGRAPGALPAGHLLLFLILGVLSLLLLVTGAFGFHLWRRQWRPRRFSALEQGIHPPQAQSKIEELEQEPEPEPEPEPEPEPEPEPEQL
# Key:
# [1] = target: T1, human LAG-3 expressed on cells; experiment: rank of the clone among the humanized clones by the FACS binding data on LAG-3-expressing cells
# [2] = target: T1, human LAG-3 expressed on cells; experiment: rank of the clone by the competition binding data (test mAb against FITC-labeled murine BAP050 on LAG-3-expressing CHO cells), curve position relative to the chimeric mAb in two experiments
# Description: Incubations with the mAb mixtures having different concentration ratios of test mAb to labeled mAb was at 4° C. for 30 min. […] The experiment was performed twice.
# Such a ranking system was used in FIG. 6.
Binder,"Ranking, Binding data [1]","Ranking, Compet. data [2]"
"BAP050-hum20 (antibody, human IgG4 S228P, kappa, V domains shown, humanized IgG4(S228P)/kappa, transient CHO supernatant) VH: QVQLVQSGAEVKKPGASVKVSCKASGFTLTNYGMNWVRQARGQRLEWIGWINTDTGEPTYADDFKGRFVFSLDTSVSTAYLQICSLKAEDTAVYYCARNPPYYYGTNNAEAMDYWGQGTTVTVSS VL: DIVMTQTPLSLPVTPGEPASISCSSSQDISNYLNWYQQKPGQAPRLLIYYTSTLHLGIPDRFSGSGSGTDFTLTISRLEPEDFAVYYCQQYYNLPWTFGQGTKVEIKR",9,3
"BAP050-hum06 (antibody, human IgG4 S228P, kappa, V domains shown, humanized IgG4(S228P)/kappa, transient CHO supernatant) VH: EVQLVQSGAEVKKPGATVKISCKVSGFTLTNYGMNWVRQAPGQGLEWMGWINTDTGEPTYADDFKGRFVFSLDTSVSTAYLQICSLKAEDTAVYYCARNPPYYYGTNNAEAMDYWGQGTTVTVSS VL: DIVMTQTPLSLPVTPGEPASISCSSSQDISNYLNWYQQKPGQAPRLLIYYTSTLHLGVPSRFSGSGSGTEFTLTISSLQPDDFATYYCQQYYNLPWTFGQGTKVEIKR",9,1
"BAP050-hum05 (antibody, human IgG4 S228P, kappa, humanized IgG4(S228P)/kappa, transient CHO supernatant; also called humanized clone No. 05) heavy: not shown light: EIVLTQSPATLSLSPGERATLSCSSSQDISNYLNWYQQKPGKAPKLLIYYTSTLHLGVPSRFSGSGSGTDFTFTISSLEAEDAATYYCQQYYNLPWTFGQGTKVEIKRTVAAPSVFIFPPSDEQLKSGTASVVCLLNNFYPREAKVQWKVDNALQSGNSQESVTEQDSKDSTYSLSSTLTLSKADYEKHKVYACEVTHQGLSSPVTKSFNRGEC",6,> 3
"BAP050-hum07 (antibody, human IgG4 S228P, kappa, V domains shown, humanized IgG4(S228P)/kappa, transient CHO supernatant) VH: EVQLVQSGAEVKKPGATVKISCKVSGFTLTNYGMNWVRQAPGQGLEWMGWINTDTGEPTYADDFKGRFVFSLDTSVSTAYLQICSLKAEDTAVYYCARNPPYYYGTNNAEAMDYWGQGTTVTVSS VL: DIQMTQSPSSLSASVGDRVTITCSSSQDISNYLNWYLQKPGQSPQLLIYYTSTLHLGVPSRFSGSGSGTEFTLTISSLQPDDFATYYCQQYYNLPWTFGQGTKVEIKR",8,> 3

# Further lines, results first:
"Ranking, Binding data [1]","Ranking, Compet. data [2]",Binder
9,> 3,"BAP050-hum19 (antibody, human IgG4 S228P, kappa, humanized IgG4(S228P)/kappa, transient CHO supernatant) heavy: not shown light: EIVLTQSPDFQSVTPKEKVTITCSSSQDISNYLNWYQQKPGQAPRLLIYYTSTLHLGVPSRFSGSGSGTDFTFTISSLEAEDAATYYCQQYYNLPWTFGQGTKVEIKRTVAAPSVFIFPPSDEQLKSGTASVVCLLNNFYPREAKVQWKVDNALQSGNSQESVTEQDSKDSTYSLSSTLTLSKADYEKHKVYACEVTHQGLSSPVTKSFNRGEC"
8,2,"BAP050-hum04 (antibody, human IgG4 S228P, kappa, V domains shown, humanized IgG4(S228P)/kappa, transient CHO supernatant) VH: EVQLVQSGAEVKKPGATVKISCKVSGFTLTNYGMNWVRQAPGQGLEWMGWINTDTGEPTYADDFKGRFVFSLDTSVSTAYLQICSLKAEDTAVYYCARNPPYYYGTNNAEAMDYWGQGTTVTVSS VL: DIQMTQSPSSLSASVGDRVTITCSSSQDISNYLNWYLQKPGQSPQLLIYYTSTLHLGIPDRFSGSGSGTDFTLTISRLEPEDFAVYYCQQYYNLPWTFGQGTKVEIKR"
5,1,"BAP050-hum02 (antibody, human IgG4 S228P, kappa, V domains shown, humanized IgG4(S228P)/kappa, transient CHO supernatant; also called humanized clone No. 02) VH: EVQLVQSGAEVKKPGATVKISCKVSGFTLTNYGMNWVRQAPGQGLEWMGWINTDTGEPTYADDFKGRFVFSLDTSVSTAYLQICSLKAEDTAVYYCARNPPYYYGTNNAEAMDYWGQGTTVTVSS VL: DIQMTQSPSSLSASVGDRVTITCSSSQDISNYLNWYQQKPGKAPKLLIYYTSTLHLGIPPRFSGSGYGTDFTLTINNIESEDAAYYFCQQYYNLPWTFGQGTKVEIKR"
7,1,"BAP050-hum03 (antibody, human IgG4 S228P, kappa, humanized IgG4(S228P)/kappa, transient CHO supernatant) heavy: not shown light: EIVLTQSPATLPVTLGQPASISCSSSQDISNYLNWYQQKPGQAPRLLIYYTSTLHLGVPSRFSGSGSGTDFTFTISSLEAEDAATYYCQQYYNLPWTFGQGTKVEIKRTVAAPSVFIFPPSDEQLKSGTASVVCLLNNFYPREAKVQWKVDNALQSGNSQESVTEQDSKDSTYSLSSTLTLSKADYEKHKVYACEVTHQGLSSPVTKSFNRGEC"
